Drawing on PMC9864105, this text covers share of rRTIN in the hexamer or higher multimer for one substance.

The experiment concerns the target recombinant HIV-1 RTIN (reverse transcriptase and integrase in fusion form, the Pol precursor intermediate) (HIV-1 (NL4-3)). Put plainly: SEC. (Size exclusion chromatography separates by hydrodynamic size, large species first.)

For the substance “recombinant HIV-1 RTIN (reverse transcriptase and integrase in fusion form, the Pol precursor intermediate) (enzyme)”, the share of rRTIN in the hexamer or higher multimer was found to be 80%.
